Data taken from patent US20080219974A1.

Molecular target: human V158 FcγRIIIa (human) (UniProt P08637)
Assay: not described in this filing

Chain of human V158 FcγRIIIa (human) (P08637 17-208 F176V limits assumed): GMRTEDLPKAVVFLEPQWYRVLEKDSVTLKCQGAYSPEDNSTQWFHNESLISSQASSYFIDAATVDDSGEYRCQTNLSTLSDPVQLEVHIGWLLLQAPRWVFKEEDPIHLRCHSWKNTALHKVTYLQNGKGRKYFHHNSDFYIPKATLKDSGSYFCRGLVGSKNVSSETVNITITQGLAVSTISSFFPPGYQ

Kd: 240 nM
Substance: human WT IgG1 (antibody)
